Results published in the supplement of paper PMC10567573.

B1: CDC25B (parent)
chain: ELKTFRLKTRSWAGERSRRELCSR
B2: CDS2 (parent)
chain: IHSIALSTFASLIGPFGGFFASGF
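Note: lentivirally expressed fusions sorted by FACS into six bins by GFP to DsRed ratio, PSI derived from sequencing read proportions per bin multiplied by bin number.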

Variants of: B1
Assay: protein stability index of a GFP-peptide fusion (GPS, HEK-293T) (PSI 1-6); higher = more stable
Details: c terminus: a fixed tail appended
ELKTFRLKTRSWAGERSRRELCSG [R24G] showed a protein stability index of 2.59. ELKTFRLKTRSWAGERSSRELCSR [R18S] gave a protein stability index of 3.85. In the case of ELKTFRLKTRSWAGERSYRELCSR [R18Y], the protein stability index is reported as 2.58. With ELKTFRLKTRSWAGERSWRELCSR [R18W] the protein stability index was 2.84. Work on ELKTFRLKTRSWAGERSTRELCSR [R18T] yielded a protein stability index of 3.38. For ELKTFRLKTRSWAGERSVRELCSR [R18V], the protein stability index was 3.6. Variant ELKTFRLKTRSWAGERSRRHLCSR [E20H] has a protein stability index of 3.52. Work on ELKTFRLKTRSWAGERSRRTLCSR [E20T] yielded a protein stability index of 2.88. Variant ELKTFRLKTRSWAGERSRRMLCSR [E20M] has a protein stability index of 3.25. Work on ELKTFRLKTRSWAGERSRRFLCSR [E20F] yielded a protein stability index of 2.52. With ELKTFRLKTRSWAGERSRRCLCSR [E20C] the protein stability index was 2.72. For ELKTFRLKTRSWAGERSRRQLCSR [E20Q], the protein stability index was 3.53. With ELKTFRLKTRSWAGERSRRVLCSR [E20V] the protein stability index was 2.9. Variant ELKTFRLKTRSWAGERSRRSLCSR [E20S] has a protein stability index of 2.92. ELKTFRLKTRSWAGERSRRLLCSR [E20L] showed a protein stability index of 2.42. With ELKTFRLKTRSWAGERSRRKLCSR [E20K] the protein stability index was 3.47. Work on ELKTFRLKTRSWAGERSRRILCSR [E20I] yielded a protein stability index of 2.66. In the case of ELKTFRLKTRSWAGERSRRYLCSR [E20Y], the protein stability index is reported as 2.69. Variant ELKTFRLKTRSWAGERSRRGLCSR [E20G] has a protein stability index of 2.65. ELKTFRLKTRSWAGERSRRRLCSR [E20R] showed a protein stability index of 2.78. ELKTFRLKTRSWAGERSRRWLCSR [E20W] gave a protein stability index of 2.57. In the case of ELKTFRLKTRSWAGERSRRNLCSR [E20N], the protein stability index is reported as 3.42. In the case of ELKTFRLKTRSWAGERSRRALCSR [E20A], the protein stability index is reported as 3.25. With ELKTFRLKTRSWAGERSRRDLCSR [E20D] the protein stability index was 2.98. Variant ELKTFRLKTRSWAGERSRRPLCSR [E20P] has a protein stability index of 3.08.

Variants of: B2
Assay: as above
Details: c terminus: a fixed tail appended
IWSIALSTFASLIGPFGGFFASGF [H2W] gave a protein stability index of 2. IDSIALSTFASLIGPFGGFFASGF [H2D] gave a protein stability index of 2.57. Work on IHSIALSTFASLIGPFGRFFASGF [G18R] yielded a protein stability index of 3.42. Variant IHSIALSTFASLIGPFGEFFASGF [G18E] has a protein stability index of 2.89. In the case of IHSIALSTFASLIGPFGQFFASGF [G18Q], the protein stability index is reported as 3.3. IHSIALSTFASLIGPFGYFFASGF [G18Y] gave a protein stability index of 3.62. IHSIALSTFASLIGPFGNFFASGF [G18N] gave a protein stability index of 2.01. With IHSIALSTFASLIGPFGFFFASGF [G18F] the protein stability index was 3.59. With IHSIALSTFASLIGPFGTFFASGF [G18T] the protein stability index was 3.73. IHSIALSTFASLIGPFGPFFASGF [G18P] gave a protein stability index of 2.83. IHSIALSTFASLIGPFGGFFNSGF [A21N] showed a protein stability index of 2.8. With IHSIALSTFASLIGPFGGFFLSGF [A21L] the protein stability index was 2.75. Work on IHSIALHTFASLIGPFGGFFASGF [S7H] yielded a protein stability index of 3.45. With IHSIALCTFASLIGPFGGFFASGF [S7C] the protein stability index was 1.83. IHSIALFTFASLIGPFGGFFASGF [S7F] gave a protein stability index of 3.48. In the case of IHSIALNTFASLIGPFGGFFASGF [S7N], the protein stability index is reported as 2.5. IHSIALATFASLIGPFGGFFASGF [S7A] gave a protein stability index of 2.22. IHSIALTTFASLIGPFGGFFASGF [S7T] gave a protein stability index of 2.71. Work on IHSIALQTFASLIGPFGGFFASGF [S7Q] yielded a protein stability index of 2.64. IHSIALSTFASLIGPFRGFFASGF [G17R] gave a protein stability index of 2.63. With IHSIALSTFASLIGPFTGFFASGF [G17T] the protein stability index was 4.3. Variant IHSIALSTFASLIGPFDGFFASGF [G17D] has a protein stability index of 3.88. For IHSIALSTFASLIGPFGGFFASCF [G23C], the protein stability index was 2.54. Variant IHSIALSTFASLIGPFGGFFASFF [G23F] has a protein stability index of 2.67. For IHSIALSTFASLIGPFGGFFASMF [G23M], the protein stability index was 3.23. In the case of IHSIALSTFASLIGPFGGFFASVF [G23V], the protein stability index is reported as 2.14. With IHSIALSTFASLIGPFGGFFASPF [G23P] the protein stability index was 2.73. Variant IHSIALSPFASLIGPFGGFFASGF [T8P] has a protein stability index of 3.52. Work on IHSIALSRFASLIGPFGGFFASGF [T8R] yielded a protein stability index of 3.47. For IHSIALSTFASLIGPFGGFAASGF [F20A], the protein stability index was 1.97. IHSIALSTFASLIGGFGGFFASGF [P15G] showed a protein stability index of 3.77. With IHSIALSTFASLIGFFGGFFASGF [P15F] the protein stability index was 2.46. For IHSIALSTFASLIGWFGGFFASGF [P15W], the protein stability index was 2.2. Variant IHSIALSTFASLQGPFGGFFASGF [I13Q] has a protein stability index of 2.45. In the case of IHSIALSTFASLHGPFGGFFASGF [I13H], the protein stability index is reported as 3.22. IHSIALSTFASLNGPFGGFFASGF [I13N] showed a protein stability index of 2. For IHSIALSTFASLIGPFGGFFASGS [F24S], the protein stability index was 2.63. For IHSIALSTFASLIGPFGGFFASGD [F24D], the protein stability index was 3.08. IHSIALSTFASLIGPFGGFFASGP [F24P] showed a protein stability index of 3.79. With IHSIALSTFASRIGPFGGFFASGF [L12R] the protein stability index was 1.6. In the case of IHSIALSTFASPIGPFGGFFASGF [L12P], the protein stability index is reported as 2.99. IHSIALSTFASHIGPFGGFFASGF [L12H] gave a protein stability index of 3.22. For IHSIALSTFASWIGPFGGFFASGF [L12W], the protein stability index was 3.43. IHSIALSTLASLIGPFGGFFASGF [F9L] gave a protein stability index of 3.88. Work on IHSIALSTFASLIGPFGGWFASGF [F19W] yielded a protein stability index of 3.48. In the case of IHSIALSTFASLIGPFGGVFASGF [F19V], the protein stability index is reported as 2.86. For IHSIALSTFATLIGPFGGFFASGF [S11T], the protein stability index was 2.57. In the case of IHSIALSTFAMLIGPFGGFFASGF [S11M], the protein stability index is reported as 3.71. Variant IHSIALSTFAILIGPFGGFFASGF [S11I] has a protein stability index of 3.73. Variant IHSIALSTFLSLIGPFGGFFASGF [A10L] has a protein stability index of 2.98. In the case of IHSIALSTFKSLIGPFGGFFASGF [A10K], the protein stability index is reported as 1.79. Variant IHSIALSTFSSLIGPFGGFFASGF [A10S] has a protein stability index of 2.6. For IHSIALSTFGSLIGPFGGFFASGF [A10G], the protein stability index was 3.32. In the case of IHSWALSTFASLIGPFGGFFASGF [I4W], the protein stability index is reported as 2.65. IHSEALSTFASLIGPFGGFFASGF [I4E] showed a protein stability index of 2.14. With IHDIALSTFASLIGPFGGFFASGF [S3D] the protein stability index was 3.74. IHFIALSTFASLIGPFGGFFASGF [S3F] gave a protein stability index of 3.44. Work on IHNIALSTFASLIGPFGGFFASGF [S3N] yielded a protein stability index of 4.17. IHKIALSTFASLIGPFGGFFASGF [S3K] gave a protein stability index of 3.55. Work on IHSIRLSTFASLIGPFGGFFASGF [A5R] yielded a protein stability index of 3.68. Work on IHSIHLSTFASLIGPFGGFFASGF [A5H] yielded a protein stability index of 2.81. For IHSIGLSTFASLIGPFGGFFASGF [A5G], the protein stability index was 2.93. Work on IHSIALSTFASLIRPFGGFFASGF [G14R] yielded a protein stability index of 2.97. IHSIALSTFASLIVPFGGFFASGF [G14V] showed a protein stability index of 2.64. Work on IHSIAQSTFASLIGPFGGFFASGF [L6Q] yielded a protein stability index of 2.28. In the case of IHSIANSTFASLIGPFGGFFASGF [L6N], the protein stability index is reported as 2.62. IHSIATSTFASLIGPFGGFFASGF [L6T] gave a protein stability index of 1.39. IHSIALSTFASLIGPTGGFFASGF [F16T] showed a protein stability index of 2.92. In the case of IHSIALSTFASLIGPDGGFFASGF [F16D], the protein stability index is reported as 3.08.
